Measurements reported in patent US7981423B2, “Rage fusion proteins” (Transtech Pharma, Inc., priority 2004, dated 2011).

Experiments:
male C57BL/6 mice = experiment: Animal model of stroke (carotid/cerebral artery occlusion and reperfusion); type: in vivo, mouse; conditions: treated just prior to reperfusion
Method: For example, the RAGE fusion proteins of the present invention may also be used to treat stroke. […] In this model, the […] of a mouse is ligated and then reperfased to form an infart. To assess the efficacy of RAGE fusion proteins to treat or prevent stroke, mice were treated with sRAGE or TTP-4000 or control immunoglobulin just prior to reperfusion.
TTP-4000 was also compared to sRAGE in a disease relevant animal model of stroke. In this model, the […] of a mouse was ligated for 1 hour followed by 23 hours of reperfusion at which point the mice were sacrificed and the area of the infarct in the brain was assessed. […] After the nylon suture had been in place for 1 hour, the animal was re-anesthetized, rectal temperature was recorded and the suture was removed and the incision closed.
Infarct volume was determined by anesthetizing the animals with an intraperitoneal injection of sodium pentobarbital (50 mg/kg) and then removing the brains. […] The infarct area in each section was determined with a computer-assisted image analysis system, consisting of a Power Macintosh computer equipped with a Quick Capture frame grabber card, Hitachi CCD camera mounted on a camera stand. […] The images were captured and the total area of infarct was determined over the sections. […] Summing the infarct volumes of the sections calculated the total infarct volume. […]

[1] = tested on: RAGE (S100b-stimulated THP-1 cells); experiment: S100b/RAGE-induced production of TNF-α in THP-1 cells; type: cell-based; conditions: 10 μg protein, FIG. 10
Method: THP-1 myeloid cells may be cultured in RPMI-1640 media supplemented with 10% FBS and induced to secrete TNF-α via stimulation of RAGE with S100b. When such stimulation occurs in the presence of a RAGE fusion protein, induction of TNF-α, by S100b binding to RAGE may be inhibited.
Previous work has shown that the myeloid THP-1 cells may secrete TNF-α in response to RAGE ligands. In this assay, THP-1 cells were cultured in RPMI-1640 media supplemented with 10% FBS using a protocol provided by ATCC. […] The amount of TNF-α secreted by the THP-1 cells was measured 24 hours after the addition of the proteins to the cell culture using a commercially available ELISA kit for TNF-α (R&D Systems, Minneapolis, Minn.).

[2] = target: immobilized known RAGE ligands (HMG1B, CML, A beta); experiment: Saturation binding of TTP-4000 to immobilized known RAGE ligands; conditions: fusion protein 0 to 360 nM; Graphpad Prizm; FIG. 15; figures not given
Method: The ligands are immobilized on a microtiter plate and incubated in the presence of increasing concentrations of fusion protein from 0 to 360 nM. The fusion protein-ligand interaction is detected using a polyclonal antibody conjugated with alkaline phosphatase that is specific for the IgG portion of the fusion chimera. […] HMG1B=Ampoterin, CML=Carboxymethyl Lysine, A beta=Amyloid beta 1-40.

amyloid-beta (A-beta) = experiment: Competition of a RAGE ligand with immobilized amyloid-beta for binding to the fusion protein; conditions: TTP-4000 initial solution diluted 1:10 or 1:30; RAGE ligand 10 μM FAC
Method: The fusion protein of the present invention may also be used to identify compounds having the ability to bind to RAGE.
Known RAGE ligands were coated onto the surface of Maxisorb plates at a concentration of 5 micrograms per well. Plates were incubated at 4° C. overnight. Following ligand incubation, plates were aspirated and a blocking buffer of 1% BSA in 50 mM imidizole buffer (pH 7.2) was added to the plates for 1 hour at room temperature. The plates were then aspirated and/or washed with wash buffer (20 mM Imidizole, 150 mM NaCl, 0.05% Tween-20, 5 mM CaCl2 and 5 mM MgCl2, pH 7.2). […] The fusion protein was added at increasing dilutions of the initial sample. The RAGE fusion protein was allowed to incubate with the immobilized ligand at 37° C. for one hour after which the plate was washed and assayed for binding of the fusion protein. Binding was detected by the addition of an immunodetection complex containing a monoclonal mouse anti-human IgG1 diluted 1:11,000 to a final assay concentration (FAC) of 21 ng/100 μL, a biotinylated goat anti-mouse IgG diluted 1:500, to a FAC of […], and an avidin-linked alkaline phosphatase. The complex was incubated with the immobilized fusion protein for one hour at room temperature after which the plate was washed and the alkaline phosphatase substrate para-nitrophenylphosphate (PNPP) was added. […]

B1: TTP-4000: four domain RAGE fusion protein (SEQ ID NO: 32): human RAGE amino acids 1-251 linked to CH2 and CH3 domains of human IgG (protein)
chain: MAAGTAVGAWALVLSLWGAVVGAQNITARIGEPLVLKCKGAPKKPPQRLEWKLNTGRTEAWKVLSPQGGGPWDSVARVLPNGSLFLPAVGIQDEGIFRCQAMNRNGKETKSNYRVRVYQIPGKPEIVDSASELTAGVPNKVGTCVSEGSYPAGTLSWHLDGKPLVPNEKGVSVKEQTRRHPETGLFTLQSELMVTPARGGDPRPTFSCSFSPGLPRHRALRTAPIQPRVWEPVPLEEVQLVVEPEGGAVAPPSVFLFPPKPKDTLMISRTPEVTCVVVDVSHEDPEVKFNWYVDGVEVHNAKTKPREEQYNSTYRVVSVLTVLHQDWLNGKEYKCKVSNKALPAPIEKTISKAKGQPREPQVYTLPPSRDELTKNQVSLTCLVKGFYPSDIAVEWESNGQPENNYKTTPPVLDSDGSFFLYSKLTVDKSRWQQGNVFSCSVMHEALHNHYTQKSLSLSPGK
reduction in infarct volume compared to sRAGE (in words) (male C57BL/6 mice): significantly greater reduction in infarct volume | reduction of S100b induction of TNF-α ([1]; S100b 0.1 mg/ml FAC, 24 hours): ~70% | effect on S100b induction of TNF-α (in words) ([1]; S100b 0.1 mg/ml): at least as effective in blocking S100b induction of TNF-α as is sRAGE | Relative Kds [2]: match with established literature values | inhibition of binding of TTP-4000 to immobilized amyloid-beta by the RAGE ligand (amyloid-beta (A-beta)): completely inhibited
